Results reported in US8003599B2, “Inhibitors of L1 and ADAM10 for the treatment of carcinomas” (Deutsches Krebsforschungszentrum, priority 2004, dated 2011).

Tested on: HEK293 cells
Test: Haptotactic cell migration assay in Transwell chambers, HEK293 cells
Format: cell-based, human
Experimental: (C) Inhibition of haptotactic cell migration in the absence or presence of the indicated mAbs to integrins at a final concentration of 10 μg/ml. FN at 10 μg/ml or BSA for control were coated onto the backside of Transwell chambers. Cells were seeded into the top chamber and allowed to transmigrate for 16 hr at 37° C. The antibody was present during the assay time. Each determination was done in quadruplicate and transmigrated cells were stained from the back of the filter. The dye was eluted from the filter and measured at 595 nm. The amount of dye is proportional to the number of transmigrated cells. Values for the migration on BSA were below 0.25 O.D. units for each cell type.
The haptotactic cell migration assay on fibronectin, laminin or BSA was performed in Transwell chambers (Costar, 6.5 mm diameter, 5 um pore size) and was described in detail elsewhere (Mechtersheimer et al., supra). Transmigrated cells were quantified by staining of the transwell membranes with cristalviolet solution as described (Mechtersheimer at al., supra). The eluted dye was measured at 595 nm in an ELISA reader.

Row | Molecule | induction of cell migration by ascites derived soluble L1 (fibronectin as substrate (FIG. 4B)) | induction of HEK293 migration by L1mutSH3-HEK293 supernatant (conditioned medium concentrated tenfold)
1 | soluble L1: affinity purified soluble L1 from ascites fluid of ovarian carcinoma patients, 150 kDa and 200 kDa (protein) IQIPEEYEGHHVMEPPVITEQSPRRLVVFPTDDISLKCEASGKPEVQFRWTRDGVHFKPKEELGVTVYQSPHSGSFTITGNNSNFAQRFQGIYRCFASNKLGTAMSHEIRLMAEGAPKWPKETVKPVEVEEGESVVLPCNPPPSAEPLRIYWMNSKILHIKQDERVTMGQNGNLYFANVLTSDNHSDYICHAHFPGTRTIIQKEPIDLRVKATNSMIDRKPRLLFPTNSSSHLVALQGQPLVLECIAEGFPTPTIKWLRPSGPMPADRVTYQNHNKTLQLLKVGEEDDGEYRCLAENSLGSARHAYYVTVEAAPYWLHKPQSHLYGPGETARLDCQVQGRPQPEVTWRINGIPVEELAKDQKYRIQRGALILSNVQPSDTMVTQCEARNRHGLLLANAYIYVVQLPAKILTADNQTYMAVQGSTAYLLCKAFGAPVPSVQWLDEDGTTVLQDERFFPYANGTLGIRDLQANDTGRYFCLAANDQNNVTIMANLKVKDATQITQGPRSTIEKKGSRVTFTCQASFDPSLQPSITWRGDGRDLQELGDSDKYFIEDGRLVIHSLDYSDQGNYSCVASTELDVVESRAQLLVVGSPGPVPRLVLSDLHLLTQSQVRVSWSPAEDHNAPIEKYDIEFEDKEMAPEKWYSLGKVPGNQTSTTLKLSPYVHYTFRVTAINKYGPGEPSPVSETVVTPEAAPEKNPVDVKGEGNETTNMVITWKPLRWMDWNAPQVQYRVQWRPQGTRGPWQEQIVSDPFLVVSNTSTFVPYEIKVQAVNSQGKGPEPQVTIGYSGEDYPQAIPELEGIEILNSSAVLVKWRPVDLAQVKGHLRGYNVTYWREGSQRKHSKRHIHKDHVVVPANTTSVILSGLRPYSSYHLEVQAFNGRGSGPASEFTFSTPEGVPGHPEALHLECQSNTSLLLRWQPPLSHNGVLTGYVLSYHPLDEGGKGQLSFNLRDPELRTHNLTDLSPHLRYRFQLQATTKEGPGEAIVREGGTMALSGISDFGNISATAGENYSVVSWVPKEGQCNFRFHILFKALGEEKGGASLSPQYVSYNQSSYTQWDLQPDTDYEIHLFKERMFRHQMAVKTNGTGRVRLPPAGFATE | potent dose-dependent inducer of cell migration | –
2 | soluble L1 released from HEK293-hL1mutSH3 cells: supernatant collected from HEK293-hL1mutSH3 cells, concentrated tenfold (protein, UniProt P32004 20-1120, looked up, extracellular domain from SH3-motif mutant L1, supernatant collected from HEK293-hL1mutSH3 cells, concentrated tenfold) extracellular domain: IQIPEEYEGHHVMEPPVITEQSPRRLVVFPTDDISLKCEASGKPEVQFRWTRDGVHFKPKEELGVTVYQSPHSGSFTITGNNSNFAQRFQGIYRCFASNKLGTAMSHEIRLMAEGAPKWPKETVKPVEVEEGESVVLPCNPPPSAEPLRIYWMNSKILHIKQDERVTMGQNGNLYFANVLTSDNHSDYICHAHFPGTRTIIQKEPIDLRVKATNSMIDRKPRLLFPTNSSSHLVALQGQPLVLECIAEGFPTPTIKWLRPSGPMPADRVTYQNHNKTLQLLKVGEEDDGEYRCLAENSLGSARHAYYVTVEAAPYWLHKPQSHLYGPGETARLDCQVQGRPQPEVTWRINGIPVEELAKDQKYRIQRGALILSNVQPSDTMVTQCEARNRHGLLLANAYIYVVQLPAKILTADNQTYMAVQGSTAYLLCKAFGAPVPSVQWLDEDGTTVLQDERFFPYANGTLGIRDLQANDTGRYFCLAANDQNNVTIMANLKVKDATQITQGPRSTIEKKGSRVTFTCQASFDPSLQPSITWRGDGRDLQELGDSDKYFIEDGRLVIHSLDYSDQGNYSCVASTELDVVESRAQLLVVGSPGPVPRLVLSDLHLLTQSQVRVSWSPAEDHNAPIEKYDIEFEDKEMAPEKWYSLGKVPGNQTSTTLKLSPYVHYTFRVTAINKYGPGEPSPVSETVVTPEAAPEKNPVDVKGEGNETTNMVITWKPLRWMDWNAPQVQYRVQWRPQGTRGPWQEQIVSDPFLVVSNTSTFVPYEIKVQAVNSQGKGPEPQVTIGYSGEDYPQAIPELEGIEILNSSAVLVKWRPVDLAQVKGHLRGYNVTYWREGSQRKHSKRHIHKDHVVVPANTTSVILSGLRPYSSYHLEVQAFNGRGSGPASEFTFSTPEGVPGHPEALHLECQSNTSLLLRWQPPLSHNGVLTGYVLSYHPLDEGGKGQLSFNLRDPELRTHNLTDLSPHLRYRFQLQATTKEGPGEAIVREGGTMALSGISDFGNISATAGENYSVVSWVPKEGQCNFRFHILFKALGEEKGGASLSPQYVSYNQSSYTQWDLQPDTDYEIHLFKERMFRHQMAVKTNGTGRVRLPPAGFATE | – | able to induce migration
